Results as given in paper PMC8571522, “siRNA screening identifies METTL9 as a histidine Nπ-methyltransferase that targets the proinflammatory protein S100A9” (The Journal of Biological Chemistry, 2021).

How the values were obtained:
[1] = biological target: T1, recombinant S100A9 prepared by cleavage of GST-S100A9, methylated in vitro by GST-METTL9 in the presence of … (mouse, UniProt P31725 1-113, Nπ-methylhistidine at His-107); experiment: pull-down; recombinant GST-cleaved S100A9 after an in vitro methylation reaction with GST-METTL9 in the presence or the absence of SAM, then binding to GST-S100A8 (Fig. S6); conditions: both partners purified
T1 construct: S100A9, mouse; methylated at His-107 by METTL9; also called de novo methylated S100A9; methylated recombinant S100A9; source: E. coli BL21-CodonPlus (DE3)-RIL, purified (Glutathione Sepharose 4B), GST removed with PreScission Protease; in vitro methylation reaction with GST-METTL9 in the presence of SAM
T1 sequence (looked up): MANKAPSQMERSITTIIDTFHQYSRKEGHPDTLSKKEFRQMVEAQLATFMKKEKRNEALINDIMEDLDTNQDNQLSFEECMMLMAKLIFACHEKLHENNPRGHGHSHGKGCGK

[2] = biological target: T2, recombinant S100A9 prepared by cleavage of GST-S100A9, after the reaction with GST-METTL9 in the absence of … (mouse, UniProt P31725 1-113); experiment: as above; conditions: both partners purified
T2 construct: S100A9, mouse; also called GST-cleaved S100A9; mS100A9; source: E. coli BL21-CodonPlus (DE3)-RIL, purified (Glutathione Sepharose 4B), GST removed with PreScission Protease; incubated with GST-METTL9 in the absence of SAM
T2 sequence (looked up): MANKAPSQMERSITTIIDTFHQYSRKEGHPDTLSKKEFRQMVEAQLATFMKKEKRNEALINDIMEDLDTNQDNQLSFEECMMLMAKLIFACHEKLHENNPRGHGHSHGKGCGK

binding result [1]: binds
binding result [2]: binds
B1: GST-fused mouse S100A8 (natural protein, UniProt P27005 1-89, looked up)
chain: MPSELEKALSNLIDVYHNYSNIQGNHHALYKNDFKKMVTTECPQFVQNINIENLFRELDINSDNAINFEEFLAMVIKVGVASHKDSHKE
notes: S100A8, mouse; Held on glutathione beads in the pull-downs; also called GST-S100A8; mS100A8; source: E. coli BL21, purified (Glutathione Sepharose 4B)
